Measured values taken from article PMC11964602 (Bioactive Materials, 2025).
Where no end group is shown, it is not given here.

Target: SARS-CoV-2 M^pro (Severe acute respiratory syndrome coronavirus 2, UniProt P0DTD1)
Assay: biochemical
Assay type: biochemical
Conditions: for M^pro inhibition (%): 100 µM

Compound: Ac-Tβ4_1-11: peptide metabolite of Ac-Tβ4, amino acids 1-11 (Ac-SDKPDMAEIEK; UniProt P62328 2-12, looked up, fragment)
- M^pro inhibition (%): 1.25%

Compound: CC[C@H](C)[C@H](NC(=O)[C@H](CCC(=O)O)NC(=O)[C@H](C)NC(=O)[C@H](CCSC)NC(=O)[C@H](CC(=O)O)NC(=O)[C@@H]1CCCN1C(=O)[C@H](CCCCN)NC(=O)[C@H](CC(=O)O)NC(=O)[C@H](CO)NC(C)=O)C(=O)N[C@@H](CCC(=O)O)C(=O)N[C@@H](CCCCN)C(=O)N[C@@H](Cc1ccccc1)C(=O)N[C@@H](CC(=O)O)C(=O)N[C@@H](CCCCN)C(=O)N[C@@H](CO)C(=O)N[C@@H](CCCCN)C(=O)N[C@@H](CC(C)C)C(=O)N[C@@H](CCCCN)C(=O)N[C@@H](CCCCN)C(=O)N[C@H](C(=O)N[C@@H](CCC(=O)O)C(=O)N[C@H](C(=O)N[C@@H](CCC(N)=O)C(=O)N[C@@H](CCC(=O)O)C(=O)N[C@@H](CCCCN)C(=O)N[C@@H](CC(N)=O)C(=O)N1CCC[C@H]1C(=O)N[C@@H](CC(C)C)C(=O)N1CCC[C@H]1C(=O)N[C@@H](CO)C(=O)N[C@@H](CCCCN)C(=O)N[C@@H](CCC(=O)O)C(=O)N[C@H](C(=O)N[C@H](C(=O)N[C@@H](CCC(=O)O)C(=O)N[C@@H](CCC(N)=O)C(=O)N[C@@H](CCC(=O)O)C(=O)N[C@@H](CCCCN)C(=O)N[C@@H](CCC(N)=O)C(=O)N[C@@H](C)C(=O)NCC(=O)N[C@@H](CCC(=O)O)C(=O)N[C@@H](CO)C(=O)O)[C@@H](C)CC)[C@@H](C)O)[C@@H](C)O)[C@@H](C)O [Ac-Tβ4, Acetyl-thymosin β4]
- inhibition at 100 µM (read-out: M^pro inhibition (%)): 7.09%
- IC50 against SARS-CoV-2 M^pro (six inhibitor concentrations 100 μM–97.65 nM): no inhibition

Compound: Ac-Tβ4_1-15: peptide metabolite of Ac-Tβ4, amino acids 1-15 (Ac-SDKPDMAEIEKFDKS)
- M^pro inhibition (%): 34.4%

Compound: Ac-Tβ4_17-43: peptide metabolite of Ac-Tβ4, amino acids 17-43 (LKKTETQEKNPLPSKETIEQEKQAGES; Thymosin beta-4; UniProt P62328 18-44, looked up, fragment)
- M^pro inhibition (%): 25.16%

Compound: Ac-Tβ4_31-43: peptide metabolite of Ac-Tβ4, amino acids 31-43 (KETIEQEKQAGES; Thymosin beta-4; UniProt P62328 32-44, looked up, fragment)
- M^pro inhibition (%): 1.88%

Compound: Ac-SDKP
- M^pro inhibition, in vitro screening of Ac-Tβ1-17 fragments (iterative N- and C-terminal fragments of Ac-Tβ1-17): less than 50%
